What was measured:
[1] = substrate: Cc1cc(=O)oc2cc(O[C@@H]3O[C@H](CO)[C@@H](O)[C@H](O)[C@H]3N)ccc12; experiment: coupled fluorescence assay with beta-hexosaminidase (4-methylumbelliferone release), Michaelis-Menten fit; type: biochemical, Homo sapiens; settings: acetyl-CoA fixed at 2 mM, CP buffer pH 5.5, 37 °C, liposomes with 20% PI, random sequential ternary-complex mechanism
From the text: (§1) coupled fluorescence assay with beta-hexosaminidase (4-methylumbelliferone release), Michaelis-Menten fit on N-acetyltransferase-His8Flag (heparin acetyl-CoA:alpha-glucosaminide N-acetyltransferase)

[2] = substrate: CC(=O)SCCNC(=O)CCNC(=O)[C@H](O)C(C)(C)COP(=O)(O)OP(=O)(O)OC[C@H]1O[C@@H](n2cnc3c(N)ncnc32)[C@H](O)[C@@H]1OP(=O)(O)O; experiment: as above; type: biochemical, Homo sapiens; settings: MU-GlcNH2 fixed at 1 mM, CP buffer pH 5.5, 37 °C, liposomes with 20% PI, random sequential ternary-complex mechanism
From the text: as §1

B1: N-acetyltransferase-His8Flag (heparin acetyl-CoA:alpha-glucosaminide N-acetyltransferase) (Homo sapiens) (protein)
chain: RDAQAAPPRDLDKKRHAELKMDQALLLIHNELLWTNLTVYWKSECCYHCLFQVLVNVPQSPKAGKPSAAAASVSTQHGSILQLNDTLEEKEVCRLEYRFGEFGNYSLLVKNIHNGVSEIACDLAVNEDPVDSNLPVSIAFLIGLAVIIVISFLRLLLSLDDFNNWISKAISSRETDRLINSELGSPSRTDPLDGDVQPATWRLSALPPRLRSVDTFRGIALILMVFVNYGGGKYWYFKHASWNGLTVADLVFPWFVFIMGSSIFLSMTSILQRGCSKFRLLGKIAWRSFLLICIGIIIVNPNYCLGPLSWDKVRIPGVLQRLGVTYFVVAVLELLFAKPVPEHCASERSCLSLRDITSSWPQWLLILVLEGLWLGLTFLLPVPGCPTGYLGPGGIGDFGKYPNCTGGAAGYIDRLLLGDDHLYQHPSSAVLYHTEVAYDPEGILGTINSIVMAFLGVQAGKILLYYKARTKDILIRFTAWCCILGLISVALTKVSENEGFIPVNKNLWSLSYVTTLSSFAFFILLVLYPVVDVKGLWTGTPFFYPGMNSILVYVGHEVFENYFPFQWKLKDNQSHKEHLTQNIVATALWVLIAYILYRKKIFWKI
notes: full length 635 aa with C-terminal His8-Flag tag kept; stably expressed in HeLa cells, DDM extract, anti-Flag purified; signal peptide cleaved; mix of 62 kDa precursor and processed alpha (Lys43-Asn144, N-terminus KKRHAE) and beta (Gly145-Ile635, N-terminus GVSEIA) chains; native about 80 kDa, monomer
B1 gave a Km [1] of 450 ± 90 µM, a Vmax [1] of 9 µmol/min/mg and a kcat [1] of 10.4 ± 1.14 s⁻¹. The Km [2] was 500 ± 20 µM, the Vmax [2] was 6.33 µmol/min/mg and the kcat [2] was 7.33 ± 0.1 s⁻¹.
